T1: GspM (P. aeruginosa, UniProt P25061 1-174)
T1 sequence: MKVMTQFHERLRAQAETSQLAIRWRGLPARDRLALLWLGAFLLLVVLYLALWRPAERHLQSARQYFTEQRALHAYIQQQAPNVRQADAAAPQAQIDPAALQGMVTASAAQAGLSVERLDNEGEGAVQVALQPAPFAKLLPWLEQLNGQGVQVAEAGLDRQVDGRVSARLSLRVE


Assays:
GspM = target: T1, GspM; experiment: SEC-MALS
SEC-MALS = target: the molecule itself; experiment: SEC-MALS

| Binder | stoichiometry N (GspM) | stoichiometry N (SEC-MALS) |
| --- | --- | --- |
| GspL (natural protein) MSGVSALFLPPASTAGADGELAVWWVQDGECRRAPFAQALAEIRAPWRLYLPVEAVTACAVNLPTQKARWLRQSLPFAVEEQLADDVEQMHLALGPALADGRHRVFAVQRTWLAAWLALAEGAGKAPASLHVDADCLPGEGSCLFWLEERWLLGGSGAVRLACGSEDWPVLRDSCPPPQRAFAAQEVAPLEGVEVQALAGNPHVWLSEQPLGTDLAQAEFAARQQSSQWRRWRPLLGLVGLWLVLQWGFTLVQAWQLQREGDRYAAQSAELYRQLFPEDRKLINLRAQFDQHLADSASSGGEGQLLGLLGQAATVIGGEPTVSVEQLDFSAARGDVALQVRAPGFDVLERLRSRLSESGLAVQLGSASRDGSTVSARLVIGG | 1 GspL per GspM (printed as 2:2) | – |
| GspL^peri (domain or fragment) WQLQREGDRYAAQSAELYRQLFPEDRKLINLRAQFDQHLADSASSGGEGQLLGLLGQAATVIGGEPTVSVEQLDFSAARGDVALQVRAPGFDVLERLRSRLSESGLAVQLGSASRDGSTVSARLVIGG | – | 2 |

Source: publication doi:10.1101/2020.03.20.999888 (bioRxiv, 2020)
